Measured values from patent EP4019546A1.
Like-named read-outs stand apart in the source and are kept apart here.

Columns and labels:
[1] = molecular target: human IL-31 (human) (UniProt Q6EBC2); test: competitive ELISA, IL-31RA coated, biotinylated IL-31 preincubated with scFv; competitor IL-31RA
[2] = molecular target: human IL-31-His (human) (UniProt Q6EBC2); test: SPR (Biacore T200), IL-31-His captured via anti-His antibody, scFv as analyte, 1:1 model
[3] = molecular target: human IL-31 (human) (UniProt Q6EBC2); test: cell-based or functional assay
[4] = molecular target: human IL-31 (human) (UniProt Q6EBC2); test: cell-based or functional assay; remark: listed apart in the source
[5] = molecular target: human IL-31-His (human) (UniProt Q6EBC2); test: SPR (Biacore T200), IL-31-His captured via anti-His antibody, scFv as analyte, 1:1 model; remark: listed apart in the source

Chain of human IL-31-His (human) (Q6EBC2 24-164 limits assumed): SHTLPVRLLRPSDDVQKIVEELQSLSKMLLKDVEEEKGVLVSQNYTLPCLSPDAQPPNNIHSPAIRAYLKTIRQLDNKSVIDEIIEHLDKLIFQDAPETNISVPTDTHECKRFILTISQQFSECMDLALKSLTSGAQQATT
Chain of human IL-31 (human) (Q6EBC2 24-164 limits assumed): as above

B1: PRO1643 (scFv, from another filing)
scFv: AFQLTQSPSSLSASVGDRVTITCQASQSIDSWLAWYQQKPGKPPKLLIYQASKLASGVPSRFSGSGSGTDYTLTISSLQPEDFATYYCQTYYGGGHIGWGFGTGTKVTVLGGGGGSGGGGSGGGGSGGGGSQSQLVESGGGLVQPGGSLRLSCAASGFSFSANYWICWVRQAPGKGLEWIVCIYIGSRADTYYAPWAKGRFTISKDNSKNTVYLQMNSLRAEDTAVYFCARFSSGIYDLDRFFLWGQGTLVTVSS
With B1 as the binder, how does the IC50 [1] read?
The IC50 was 4.58 ng/mL.

And the rel. IC50 (IC50, BMS-981164/IC50, test sample) [1]?
The rel. IC50 (IC50, BMS-981164/IC50, test sample) was 2.04.

And the Kd [2]?
Its Kd is 505 pM.

And the koff [2]?
The koff was 0.000447 s⁻¹.

What about the kon [2] of the same binder?
The kon was 884000 M⁻¹ s⁻¹.

And the IC50, neutralization of hIL-31-induced signaling in IL-31RA/OSMR dimerization assay [3]?
The IC50, neutralization of hIL-31-induced signaling in IL-31RA/OSMR dimerization assay was 11.1 ng/mL.

And the rel. IC50 (IC50, BMS-981164/IC50, test sample), IL-31RA/OSMR dimerization assay [3]?
Its rel. IC50 (IC50, BMS-981164/IC50, test sample), IL-31RA/OSMR dimerization assay is 1.16.

What about the IC50, neutralization of hIL-31-induced signaling in IL-31RA/OSMR dimerization assay [4] of the same binder?
Its IC50, neutralization of hIL-31-induced signaling in IL-31RA/OSMR dimerization assay is 8.08 ng/mL.

And the rel. IC50 (IC50, BMS-981164/IC50, test sample), IL-31RA/OSMR dimerization assay [4]?
The rel. IC50 (IC50, BMS-981164/IC50, test sample), IL-31RA/OSMR dimerization assay was 0.85.

And the Kd [5]?
The Kd was 1130 pM.

What about the koff [5] of the same binder?
Its koff is 0.000653 s⁻¹.

And the kon [5]?
The kon was 579000 M⁻¹ s⁻¹.
